To fix the notation:
B1: ECII-25AA Cys/Ser mutant (Gln-)cyclopeptide (formula VII) (peptide)
peptide: cyclo(ARAESDEARRCYNDPKCSDFVTNRQ)
modifications: disulfide 11-17
SMILES: CC(C)[C@@H]1NC(=O)[C@H](Cc2ccccc2)NC(=O)[C@H](CC(=O)O)NC(=O)[C@H](CO)NC(=O)[C@@H]2CSSC[C@H](NC(=O)[C@H](CCCNC(=N)N)NC(=O)[C@H](CCCNC(=N)N)NC(=O)[C@H](C)NC(=O)[C@H](CCC(=O)O)NC(=O)[C@H](CC(=O)O)NC(=O)[C@H](CO)NC(=O)[C@H](CCC(=O)O)NC(=O)[C@H](C)NC(=O)[C@H](CCCNC(=N)N)NC(=O)[C@H](C)NC(=O)[C@H](CCC(N)=O)NC(=O)[C@H](CCCNC(=N)N)NC(=O)[C@H](CC(N)=O)NC(=O)[C@H]([C@@H](C)O)NC1=O)C(=O)N[C@@H](Cc1ccc(O)cc1)C(=O)N[C@@H](CC(N)=O)C(=O)N[C@@H](CC(=O)O)C(=O)N1CCC[C@H]1C(=O)N[C@@H](CCCCN)C(=O)N2
B2: ECII-18AA Cys/Ser mutant (Gln-)cyclopeptide (formula VI) (peptide)
peptide: cyclo(ADEARRCYNDPKCSDFVQ)
modifications: disulfide 7-13
SMILES: CC(C)[C@@H]1NC(=O)[C@H](Cc2ccccc2)NC(=O)[C@H](CC(=O)O)NC(=O)[C@H](CO)NC(=O)[C@@H]2CSSC[C@H](NC(=O)[C@H](CCCNC(=N)N)NC(=O)[C@H](CCCNC(=N)N)NC(=O)[C@H](C)NC(=O)[C@H](CCC(=O)O)NC(=O)[C@H](CC(=O)O)NC(=O)[C@H](C)NC(=O)[C@H](CCC(N)=O)NC1=O)C(=O)N[C@@H](Cc1ccc(O)cc1)C(=O)N[C@@H](CC(N)=O)C(=O)N[C@@H](CC(=O)O)C(=O)N1CCC[C@H]1C(=O)N[C@@H](CCCCN)C(=O)N2
B3: β1-ECII-18AA Cys/Ser cyclopeptide mutant with D-Glu ring closure (formula VIII) (peptide)
peptide: cyclo(ADEARRCYNDPKCSDFV[dE])
modifications: disulfide 7-13
SMILES: CC(C)[C@@H]1NC(=O)[C@H](Cc2ccccc2)NC(=O)[C@H](CC(=O)O)NC(=O)[C@H](CO)NC(=O)[C@@H]2CSSC[C@H](NC(=O)[C@H](CCCNC(=N)N)NC(=O)[C@H](CCCNC(=N)N)NC(=O)[C@H](C)NC(=O)[C@H](CCC(=O)O)NC(=O)[C@H](CC(=O)O)NC(=O)[C@H](C)NC(=O)[C@@H](CCC(=O)O)NC1=O)C(=O)N[C@@H](Cc1ccc(O)cc1)C(=O)N[C@@H](CC(N)=O)C(=O)N[C@@H](CC(=O)O)C(=O)N1CCC[C@H]1C(=O)N[C@@H](CCCCN)C(=O)N2
B4: ECII-22AA Cys/Ser mutant (Gly-)cyclopeptide (formula IX′) (peptide)
peptide: cyclo(RAESDEARRCYNDPKCSDFVTG)
modifications: disulfide 10-16
SMILES: CC(C)[C@@H]1NC(=O)[C@H](Cc2ccccc2)NC(=O)[C@H](CC(=O)O)NC(=O)[C@H](CO)NC(=O)[C@@H]2CSSC[C@H](NC(=O)[C@H](CCCNC(=N)N)NC(=O)[C@H](CCCNC(=N)N)NC(=O)[C@H](C)NC(=O)[C@H](CCC(=O)O)NC(=O)[C@H](CC(=O)O)NC(=O)[C@H](CO)NC(=O)[C@H](CCC(=O)O)NC(=O)[C@H](C)NC(=O)[C@H](CCCNC(=N)N)NC(=O)CNC(=O)[C@H]([C@@H](C)O)NC1=O)C(=O)N[C@@H](Cc1ccc(O)cc1)C(=O)N[C@@H](CC(N)=O)C(=O)N[C@@H](CC(=O)O)C(=O)N1CCC[C@H]1C(=O)N[C@@H](CCCCN)C(=O)N2

Bridge positions count the residues as written; N and C are the ends. Square brackets hold non-standard residues; d marks the D form.

The first assay deals with anti-β1-ECII antibodies of GST/β1-ECII-immunized antibody-positive rats (sera or isolated IgG fractions) (rat). The assay is described as follows: dose-dependent ELISA competition, n=6 rat sera. In general terms: In an ELISA, binding on a coated surface is turned into a signal by an enzyme label.
Molecule B1 had a decrease in free anti-beta1-ECII antibodies (%) at 8-fold molar excess of peptide of 30%, a decrease in free anti-beta1-ECII antibodies (%) at 20-fold molar excess of peptide of 49% and a decrease in free anti-beta1-ECII antibodies (%) at 80-fold molar excess of peptide of 83%.

In turn, ADEARRCYNDPKCSDFVQ [linear ECII-18AA Cys/Ser mutated (Gln18-)peptide] yielded a decrease in receptor antibody-titers (%) at 8-fold molar excess of peptide of 24%, a decrease in receptor antibody-titers (%) at 20-fold molar excess of peptide of 35% and a decrease in receptor antibody-titers (%) at 80-fold molar excess of peptide of 50%.

For the molecule cyclo(ADEARRCYNDPKCCDFVQ) (also: three Cys (7, 13, 14), disulfide pairing not defined) [3 Cys-containing β1-ECII-18AA Cys/Cys cyclopeptide], the decrease in free anti-beta1-ECII antibodies (%) at 8-fold molar excess of peptide amounted to 46%, the decrease in free anti-beta1-ECII antibodies (%) at 20-fold molar excess of peptide was 56% and the decrease in free anti-beta1-ECII antibodies (%) at 80-fold molar excess of peptide turned out to be 71%.

The molecule ARAESDEARRCYNDPKCCDFVTNRQ [linear non-mutated 3 Cys-containing ECII-25AA Cys/Cys (Gln25) peptide] gave a decrease in receptor antibody-titers (%) at 8-fold molar excess of peptide of 24%, a decrease in receptor antibody-titers (%) at 20-fold molar excess of peptide of 35% and a decrease in receptor antibody-titers (%) at 80-fold molar excess of peptide of 50%.

B2 showed a decrease in free anti-beta1-ECII antibodies (%) at 8-fold molar excess of peptide of 53%, a decrease in free anti-beta1-ECII antibodies (%) at 20-fold molar excess of peptide of 66% and a decrease in free anti-beta1-ECII antibodies (%) at 80-fold molar excess of peptide of 85%.

The target in another assay is anti-β1-ECII antibodies in rat sera reacting with both the Cys/Ser and the Ser/Cys mutated cyclopeptides (type2 reaction, n=5) (rat). The assay is described as follows: ELISA competition, type2 sera (n=5), linear 25AA Cys/Cys peptide as antigen.
As to B1, the blocking capacity (% of blocked versus non-blocked ELISA-reactivity) was determined as 48%.

cyclo(ADEARRCYNDPKCCDFVQ) (also: three Cys (7, 13, 14), disulfide pairing not defined) [3 Cys-containing β1-ECII-18AA Cys/Cys cyclopeptide]: the blocking capacity (% of blocked versus non-blocked ELISA-reactivity) was determined as 67%.

Regarding cyclo(ADEARRCYNDPKSCDFVQ) (disulfide 7-14 (inferred)) [β1-ECII-18AA Ser/Cys mutant (Gln-)cyclopeptide (formula X)], the blocking capacity (% of blocked versus non-blocked ELISA-reactivity) was 47%.

As for cyclo(ADEARRCYNDPKSCDFV[dE]) (disulfide 7-14 (inferred)) [β1-ECII-18AA Ser/Cys cyclopeptide mutant with D-Glu ring closure (formula XII)], the blocking capacity (% of blocked versus non-blocked ELISA-reactivity) was determined as 33%.

B3: the blocking capacity (% of blocked versus non-blocked ELISA-reactivity) came out at 47%.

With B2, the blocking capacity (% of blocked versus non-blocked ELISA-reactivity) was determined as 50%.

cyclo(ARAESDEARRCYNDPKSCDFVTNRQ) (disulfide 11-18 (inferred)) [β1-ECII-25AA Ser/Cys mutant (Gln-)cyclopeptide (formula XI)] showed a blocking capacity (% of blocked versus non-blocked ELISA-reactivity) of 37%.

cyclo(ARAESDEARRCYNDPKCCDFVTNRQ) (also: three Cys (11, 17, 18), disulfide pairing not defined) [3 Cys-containing β1-ECII-25AA Cys/Cys cyclopeptide] had a blocking capacity (% of blocked versus non-blocked ELISA-reactivity) of 72%.

For a further assay, the target named is anti-β1-ECII antibodies in rat sera preferentially reacting with the Cys/Ser mutated cyclopeptides (type1 reaction, n=64) (rat). The assay is described as follows: ELISA competition, type1 sera (n=64), linear 25AA Cys/Cys peptide as antigen.
With B1, the blocking capacity (% of blocked versus non-blocked ELISA-reactivity) turned out to be 69%.

Molecule cyclo(ADEARRCYNDPKCCDFVQ) (also: three Cys (7, 13, 14), disulfide pairing not defined) [3 Cys-containing β1-ECII-18AA Cys/Cys cyclopeptide] showed a blocking capacity (% of blocked versus non-blocked ELISA-reactivity) of 59%.

cyclo(ADEARRCYNDPKSCDFVQ) (disulfide 7-14 (inferred)) [β1-ECII-18AA Ser/Cys mutant (Gln-)cyclopeptide (formula X)] showed a blocking capacity (% of blocked versus non-blocked ELISA-reactivity) of 1%.

cyclo(ADEARRCYNDPKSCDFV[dE]) (disulfide 7-14 (inferred)) [β1-ECII-18AA Ser/Cys cyclopeptide mutant with D-Glu ring closure (formula XII)] yielded a blocking capacity (% of blocked versus non-blocked ELISA-reactivity) of 1%.

In the case of B3, the blocking capacity (% of blocked versus non-blocked ELISA-reactivity) was 69%.

Molecule B2 registered a blocking capacity (% of blocked versus non-blocked ELISA-reactivity) of 68%.

In turn, cyclo(ARAESDEARRCYNDPKSCDFVTNRQ) (disulfide 11-18 (inferred)) [β1-ECII-25AA Ser/Cys mutant (Gln-)cyclopeptide (formula XI)] gave a blocking capacity (% of blocked versus non-blocked ELISA-reactivity) of 6%.

On to cyclo(ARAESDEARRCYNDPKCCDFVTNRQ) (also: three Cys (11, 17, 18), disulfide pairing not defined) [3 Cys-containing β1-ECII-25AA Cys/Cys cyclopeptide], for which the blocking capacity (% of blocked versus non-blocked ELISA-reactivity) was 65%.

For a further assay, the target named is anti-β1-ECII antibodies of GST/β1-ECII-immunized antibody-positive rats (sera or isolated IgG fractions) (rat). The assay is described as follows: ELISA after over-night incubation of n=6 rat sera with cyclopeptide (FIG. 27B, mean).
As to cyclo(ADEARRCYNDPKCCDFVQ) (also: three Cys (7, 13, 14), disulfide pairing not defined) [3 Cys-containing β1-ECII-18AA Cys/Cys cyclopeptide], the blocking-efficiency (% of the ELISA signals of unblocked sera) is 66.1%.

As to cyclo(RAESDEARRCYNDPKCCDFVTG) (also: disulphide pairing among Cys10, Cys16, Cys17 not defined) [cyc22AA Cys/Cys, 3 cysteine-containing cyclic β1-ECII 22AA peptide with a Gly closure site], the blocking-efficiency (% of the ELISA signals of unblocked sera) was 82%.

B2 showed a blocking-efficiency (% of the ELISA signals of unblocked sera) of 60%.

Consider B4, for which the blocking-efficiency (% of the ELISA signals of unblocked sera) came to 74.9%.

Molecule cyclo(ARAESDEARRCYNDPKCCDFVTNRQ) (also: three Cys (11, 17, 18), disulfide pairing not defined) [3 Cys-containing β1-ECII-25AA Cys/Cys cyclopeptide] had a blocking-efficiency (% of the ELISA signals of unblocked sera) of 73.4%.

The target is the same in a further assay. As to the kind of experiment: ELISA competition, IgG of n=78 rats preincubated with peptide, linear 25AA Cys/Cys peptide as antigen.
As for cyclo(ADEARRCYNDPKCCDFVQ) (also: three Cys (7, 13, 14), disulfide pairing not defined) [3 Cys-containing β1-ECII-18AA Cys/Cys cyclopeptide], the blocking capacity (% of blocked versus non-blocked ELISA-reactivity) was 60%.

Consider ARAESDEARRCYNDPKCCDFVTNRQ [linear non-mutated 3 Cys-containing ECII-25AA Cys/Cys (Gln25) peptide], for which the blocking capacity (% of blocked versus non-blocked ELISA-reactivity) is 55%.

With cyclo(ADEARRCYNDPKSCDFV[dE]) (disulfide 7-14 (inferred)) [β1-ECII-18AA Ser/Cys cyclopeptide mutant with D-Glu ring closure (formula XII)], the blocking capacity (% of blocked versus non-blocked ELISA-reactivity) amounted to 1%.

In the case of B3, the blocking capacity (% of blocked versus non-blocked ELISA-reactivity) stood at 69%.

As to cyclo(ARAESDEARRCYNDPKSCDFVTNRQ) (disulfide 11-18 (inferred)) [β1-ECII-25AA Ser/Cys mutant (Gln-)cyclopeptide (formula XI)], the blocking capacity (% of blocked versus non-blocked ELISA-reactivity) amounted to 6%.

cyclo(ARAESDEARRCYNDPKCCDFVTNRQ) (also: three Cys (11, 17, 18), disulfide pairing not defined) [3 Cys-containing β1-ECII-25AA Cys/Cys cyclopeptide] registered a blocking capacity (% of blocked versus non-blocked ELISA-reactivity) of 67%.

These data come from patent US20150038673A1.
